We go through 120 sequences from the supplement of paper PMC10126150.

± gives the standard deviation of the averaged measurements.
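Further: ATP exposure 15 min at 22 °C before imaging.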

For this series, the system named is ATP. Kind of series: switch fluorescence ratio, 500 uM ATP over buffer (Cy3 cluster intensity, sum of 5 cycles each) (fold (ratio)); higher = stronger signal-on switching upon ATP binding; sequences stand for … in TCGTCGGCAGCGTCAGATGTGTATAAGAGACAGTTTTTTTTTTTTTTTTTTTTTTTTT…TC. Conditions: aptamer strand: ATP DNA aptamer (quencher-CACCTGGGGGAGTATTGCGGAGGAAGG + anchor), 100 nM annealed; ATP concentration: 500 uM. In a few lines:
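Between each of five buffer/ATP cycles, the flow-cell was stripped with NaOH and re-annealed. Each cycle imaged Cy3-labelled switching-strand clusters, annealed to 100 nM quencher-labelled ATP aptamer on a modified Illumina MiSeq flow-cell, first in selection buffer and then after 15 min with 500 uM ATP at 22 °C. The fluorescence ratio is summed target-cycle over summed buffer-cycle Cy3 intensity per cluster, averaged per switch-domain sequence, with clusters outside 100-1000 RFU excluded.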
Take CGAGACGTAT: the switch fluorescence ratio was found to be 1.09 ± 0.042.

In the case of ATTCGGGGGT, the switch fluorescence ratio is 0.993 ± 0.023.

As for TGTGTACCGG, the switch fluorescence ratio came out at 1.01 ± 0.028.

As to TTGTTTGTGT, the switch fluorescence ratio worked out at 1.02 ± 0.03.

As to ACATAGAGAT, the switch fluorescence ratio worked out at 1.02 ± 0.039.

With GGAGCGAGGG, the switch fluorescence ratio was found to be 1.11 ± 0.061.

On to CTGGCTGGTG, for which the switch fluorescence ratio turned out to be 1.1 ± 0.026.

As to ATTAGGGTCT, the switch fluorescence ratio came to 0.986 ± 0.025.

TCACATGTGG: the switch fluorescence ratio amounted to 1.03 ± 0.044.

Regarding TTATATTAGT, the switch fluorescence ratio came to 0.9919 ± 0.0056.

As to TTGCTTACTT, the switch fluorescence ratio is 0.996 ± 0.019.

For GAGGGAGTTT, the switch fluorescence ratio came to 0.987 ± 0.025.

For the sequence TTTGGGGTAG, the switch fluorescence ratio was found to be 0.977 ± 0.015.

On to GGGGGGGCTA, for which the switch fluorescence ratio worked out at 0.9868 ± 0.0035.

As for AGTTAGTTTG, the switch fluorescence ratio is 0.961 ± 0.022.

Regarding GGGAAGGGTG, the switch fluorescence ratio was 1.08 ± 0.089.

On to TAGTTGGTCG, for which the switch fluorescence ratio was determined as 1.02 ± 0.049.

With TTCTGTTAAA, the switch fluorescence ratio was 1.02 ± 0.027.

Take CGTTACTTAG: the switch fluorescence ratio was found to be 1.02 ± 0.011.

In the case of TGGGAAAGCC, the switch fluorescence ratio was 0.981 ± 0.012.

With TATGCCCAGA, the switch fluorescence ratio was 1.03 ± 0.041.

GAAAAAGTGA: the switch fluorescence ratio was 0.975 ± 0.054.

With ACAGGGGGGC, the switch fluorescence ratio is 1.06 ± 0.03.

For GCGGAGAGAT, the switch fluorescence ratio came to 1.27 ± 0.33.

As for GCTTCTGAGG, the switch fluorescence ratio amounted to 1.07 ± 0.018.

As for CGGGTAGGTG, the switch fluorescence ratio amounted to 1.03 ± 0.058.

For the sequence TGGTCCTAGT, the switch fluorescence ratio came out at 0.975 ± 0.017.

As to CGGTGTTGTG, the switch fluorescence ratio was 0.986 ± 0.024.

For the sequence TAGTTGGTAC, the switch fluorescence ratio came out at 0.9925 ± 0.0083.

Take ATGAGGGGCG: the switch fluorescence ratio was 1.02 ± 0.041.

Take TGGGGATAAC: the switch fluorescence ratio was determined as 0.969 ± 0.034.

As to TTGCAGCATG, the switch fluorescence ratio amounted to 1.51 ± 0.68.

With GGGACTGCGT, the switch fluorescence ratio was 0.9624 ± 0.0072.

For CGTGTGGTTC, the switch fluorescence ratio is 1.02 ± 0.036.

On to AATTGGGTTG, for which the switch fluorescence ratio worked out at 0.957 ± 0.026.

For AACTTAACGA, the switch fluorescence ratio came to 1.0744 ± 0.00011.

On to AGGAAGTGCC, for which the switch fluorescence ratio was determined as 1.032 ± 0.0062.

With AGAAGGAGGT, the switch fluorescence ratio worked out at 0.9874 ± 0.0089.

For the sequence AGTGGGGAGC, the switch fluorescence ratio was 0.978 ± 0.031.

Turning to GCGGGGGGCG, the switch fluorescence ratio is 1.01 ± 0.041.

Consider TCTGGATTGT, for which the switch fluorescence ratio turned out to be 0.97294 ± 3.9e-05.

Turning to GGGCATTGCG, the switch fluorescence ratio is 0.9667 ± 0.0091.

Consider CCATGGTTGT, for which the switch fluorescence ratio came out at 1.011 ± 0.005.

Turning to TAGTAGGTAC, the switch fluorescence ratio was 1.04 ± 0.025.

With GGTTTCTGGG, the switch fluorescence ratio came to 0.963 ± 0.017.

As for GGCTAATGCG, the switch fluorescence ratio amounted to 1.01 ± 0.036.

As to AAGGGTCGCG, the switch fluorescence ratio came to 1.02 ± 0.055.

Take GTTTTTCCAG: the switch fluorescence ratio was found to be 0.9844 ± 0.0061.

Take TTGTTAAATT: the switch fluorescence ratio amounted to 0.98 ± 0.018.

Take CTAAAGTGGG: the switch fluorescence ratio was found to be 0.973 ± 0.015.

On to TGGGGTAAAC, for which the switch fluorescence ratio came to 0.997 ± 0.024.

Regarding GATGGGTATA, the switch fluorescence ratio came to 1.0016 ± 0.00067.

TACGGTTTTT: the switch fluorescence ratio is 0.967 ± 0.019.

For the sequence TACAGGTCAT, the switch fluorescence ratio came to 1 ± 0.018.

Turning to ATGGGCGATG, the switch fluorescence ratio amounted to 1.01 ± 0.055.

As for TATTTTAGGG, the switch fluorescence ratio was 0.985 ± 0.029.

Take TAAAAAAGAT: the switch fluorescence ratio is 0.978 ± 0.017.

As for GCTGTAGGTT, the switch fluorescence ratio is 1 ± 0.011.

Regarding AATAGGGGAC, the switch fluorescence ratio was determined as 1.01 ± 0.016.

As for AACCTTCGTG, the switch fluorescence ratio was 1.62 ± 0.047.

For the sequence ATGGGGAAAT, the switch fluorescence ratio was determined as 0.984 ± 0.021.

TTTGCGGAGG: the switch fluorescence ratio came to 1.27 ± 0.48.

On to GCCGTGGAGA, for which the switch fluorescence ratio turned out to be 1.03 ± 0.021.

Turning to CCACCGGGCC, the switch fluorescence ratio was 1.36 ± 0.076.

As for TTGGGTGAGC, the switch fluorescence ratio amounted to 0.994 ± 0.024.

As to TCACAGTTTT, the switch fluorescence ratio turned out to be 0.983 ± 0.02.

GGGGGATATG: the switch fluorescence ratio was determined as 0.984 ± 0.027.

As to AGGGGTTCTG, the switch fluorescence ratio was determined as 1.01 ± 0.046.

In the case of TATAGGCTCA, the switch fluorescence ratio stood at 0.976 ± 0.033.

For the sequence TTGGGACGGT, the switch fluorescence ratio came to 0.9972 ± 0.0076.

Regarding CCGGGGTCGG, the switch fluorescence ratio is 1.04 ± 0.057.

Consider TTTCAAGTAC, for which the switch fluorescence ratio was 1.49 ± 0.21.

For TTGGAGGAAT, the switch fluorescence ratio was determined as 1.02 ± 0.014.

For GAGGCCCATT, the switch fluorescence ratio came out at 1 ± 0.043.

For ATGAAAGGCT, the switch fluorescence ratio was found to be 1.02 ± 0.0022.

On to GGTATTATTG, for which the switch fluorescence ratio is 0.998 ± 0.023.

As for TTAAGTAGTA, the switch fluorescence ratio worked out at 0.9679 ± 0.0025.

As to AAGTTCGAGA, the switch fluorescence ratio worked out at 1.002 ± 0.0016.

With CAGGCGAGGG, the switch fluorescence ratio was found to be 0.9905 ± 0.0078.

For the sequence TGTGAATGGG, the switch fluorescence ratio is 1.02 ± 0.017.

On to TGACTGGGTT, for which the switch fluorescence ratio was determined as 1.02 ± 0.047.

As to TTTGTTATTT, the switch fluorescence ratio came out at 1.01 ± 0.023.

For the sequence ACCGTGGCGT, the switch fluorescence ratio was 1.0212 ± 0.001.

Consider CAGCCAAATA, for which the switch fluorescence ratio worked out at 1.1 ± 0.029.

For TTCGGTGTTT, the switch fluorescence ratio is 1.02 ± 0.022.

For TAGATGGTAG, the switch fluorescence ratio turned out to be 0.973 ± 0.016.

Regarding GAAAGTATGT, the switch fluorescence ratio was found to be 1 ± 0.024.

Take GTGGCTATCG: the switch fluorescence ratio came to 0.993 ± 0.025.

Take CTTGAAATTC: the switch fluorescence ratio came to 1.04 ± 0.017.

For the sequence AGGGGGTAAC, the switch fluorescence ratio stood at 1 ± 0.051.

As to AAGCAGGTTA, the switch fluorescence ratio was found to be 1.01 ± 0.0062.

In the case of CTTTGTAGCC, the switch fluorescence ratio was found to be 1.05 ± 0.012.

Turning to TGTTATTTTT, the switch fluorescence ratio came out at 1 ± 0.041.

Regarding TCGTGCAGTT, the switch fluorescence ratio was determined as 1.01 ± 0.015.

Turning to ACAGAATAGG, the switch fluorescence ratio was determined as 1.018 ± 0.0027.

As to GCAGGAGATT, the switch fluorescence ratio was 1.01 ± 0.032.

In the case of TATGATTTAT, the switch fluorescence ratio worked out at 0.995 ± 0.062.

Regarding TCAGGTGTGT, the switch fluorescence ratio amounted to 1.36 ± 0.11.

For TTTTGAACCC, the switch fluorescence ratio was found to be 0.984 ± 0.08.

Consider CGGGGAAGGC, for which the switch fluorescence ratio stood at 1.13 ± 0.065.

Take GAAGGTAGCA: the switch fluorescence ratio was determined as 1.03 ± 0.041.

As to TAAGGAAAGG, the switch fluorescence ratio came out at 0.982 ± 0.027.

Turning to CTTGGGGGGA, the switch fluorescence ratio was 0.997 ± 0.029.

GACGGGCAAG: the switch fluorescence ratio stood at 1.02 ± 0.053.

On to AAGGGTTGGG, for which the switch fluorescence ratio is 1.06 ± 0.058.

As to AAAGGGTCAT, the switch fluorescence ratio was found to be 0.9918 ± 0.0086.

In the case of TGTTTGATGG, the switch fluorescence ratio worked out at 1.01 ± 0.038.

For GATCTGCTTC, the switch fluorescence ratio is 1.02 ± 0.026.

AGGGGGTACT: the switch fluorescence ratio is 1 ± 0.011.

As to AGCGGGGTCG, the switch fluorescence ratio was 1 ± 0.011.

Turning to TACTATGGTC, the switch fluorescence ratio turned out to be 1.01 ± 0.07.

Take TGAGAAGGAA: the switch fluorescence ratio came to 1.033 ± 0.0093.

For GGCTTGGGGA, the switch fluorescence ratio is 1.01 ± 0.036.

As to TCCGTGTGGT, the switch fluorescence ratio was found to be 1.07 ± 0.051.

Turning to ACTACGATAT, the switch fluorescence ratio stood at 1.34 ± 0.022.

Take AGAATGTCGA: the switch fluorescence ratio turned out to be 0.968 ± 0.068.

In the case of TGAGGGGAAG, the switch fluorescence ratio is 0.986 ± 0.021.

As for CGCCGCTTCA, the switch fluorescence ratio is 1.05 ± 0.067.

On to CGAGTTGGAG, for which the switch fluorescence ratio was determined as 1.01 ± 0.025.

As to AGATATCAAC, the switch fluorescence ratio stood at 1.04 ± 0.021.
